Drawing on paper PMC8291550, this text covers other: τoff for 17 substances.

In this assay the target is rat skeletal muscle sodium channel rNaV1.4 (UniProt P15390). In words: washing-out time-course analysis (electrophysiology). The settings on record: read off a plot.
Chain of UniProt P15390 (P15390 whole entry): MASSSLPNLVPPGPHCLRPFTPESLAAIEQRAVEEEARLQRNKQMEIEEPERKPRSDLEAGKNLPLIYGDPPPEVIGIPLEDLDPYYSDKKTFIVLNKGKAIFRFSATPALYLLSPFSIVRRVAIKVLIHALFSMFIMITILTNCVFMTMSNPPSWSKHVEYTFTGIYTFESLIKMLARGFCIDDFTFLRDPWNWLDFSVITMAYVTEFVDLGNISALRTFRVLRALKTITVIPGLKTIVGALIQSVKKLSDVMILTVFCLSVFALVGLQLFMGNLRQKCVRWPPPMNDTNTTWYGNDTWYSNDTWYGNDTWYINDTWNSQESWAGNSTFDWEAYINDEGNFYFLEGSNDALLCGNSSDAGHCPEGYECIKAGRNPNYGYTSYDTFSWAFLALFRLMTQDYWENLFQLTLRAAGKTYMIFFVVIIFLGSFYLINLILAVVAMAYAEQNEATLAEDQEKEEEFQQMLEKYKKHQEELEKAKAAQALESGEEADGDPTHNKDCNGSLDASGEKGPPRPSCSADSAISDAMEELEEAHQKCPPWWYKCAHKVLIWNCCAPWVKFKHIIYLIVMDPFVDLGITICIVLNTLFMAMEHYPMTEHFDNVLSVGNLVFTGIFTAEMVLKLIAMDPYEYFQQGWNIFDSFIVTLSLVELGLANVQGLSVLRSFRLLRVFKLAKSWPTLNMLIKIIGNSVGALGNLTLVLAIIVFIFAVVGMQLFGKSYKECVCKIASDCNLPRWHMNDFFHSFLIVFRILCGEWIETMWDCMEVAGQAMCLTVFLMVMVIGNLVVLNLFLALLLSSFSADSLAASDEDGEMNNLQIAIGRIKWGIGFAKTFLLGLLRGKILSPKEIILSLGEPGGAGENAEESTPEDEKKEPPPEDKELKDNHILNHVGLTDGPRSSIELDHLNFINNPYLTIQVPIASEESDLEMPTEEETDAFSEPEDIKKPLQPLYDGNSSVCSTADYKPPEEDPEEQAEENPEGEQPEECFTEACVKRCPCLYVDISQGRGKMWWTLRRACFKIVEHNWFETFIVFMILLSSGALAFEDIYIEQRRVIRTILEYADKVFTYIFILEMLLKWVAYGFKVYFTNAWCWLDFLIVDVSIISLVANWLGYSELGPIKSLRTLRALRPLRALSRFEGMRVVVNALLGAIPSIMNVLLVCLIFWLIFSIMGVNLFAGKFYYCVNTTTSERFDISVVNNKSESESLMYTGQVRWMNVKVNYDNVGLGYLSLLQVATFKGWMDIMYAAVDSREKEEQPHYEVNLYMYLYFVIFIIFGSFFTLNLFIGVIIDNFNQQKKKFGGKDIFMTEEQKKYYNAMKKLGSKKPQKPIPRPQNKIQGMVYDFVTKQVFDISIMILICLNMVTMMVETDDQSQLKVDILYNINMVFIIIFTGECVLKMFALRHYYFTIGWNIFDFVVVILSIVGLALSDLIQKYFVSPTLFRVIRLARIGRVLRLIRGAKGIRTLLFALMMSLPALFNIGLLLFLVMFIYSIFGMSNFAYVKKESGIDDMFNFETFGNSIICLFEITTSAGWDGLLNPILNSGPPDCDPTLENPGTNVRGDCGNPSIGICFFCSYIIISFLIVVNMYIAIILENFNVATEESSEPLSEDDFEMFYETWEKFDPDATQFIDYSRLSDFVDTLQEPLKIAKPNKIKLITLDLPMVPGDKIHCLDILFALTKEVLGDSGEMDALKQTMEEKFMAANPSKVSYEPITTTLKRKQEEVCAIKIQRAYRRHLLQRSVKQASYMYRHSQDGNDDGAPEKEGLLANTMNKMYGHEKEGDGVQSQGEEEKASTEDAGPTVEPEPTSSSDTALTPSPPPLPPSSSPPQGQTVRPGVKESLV
Regarding BmK-M9 H64G, the other: τoff is 1800 s. Substance BmK-M9 R2G yielded an other: τoff of 1300 s.

BmK-M9 H15G: the other: τoff worked out at 1500 s. For the substance BmK-M9 Y42G, the other: τoff was 17 s. Take BmK-M9 K24G: the other: τoff was found to be 1800 s. BmK-M9 K50G displayed an other: τoff of 1600 s. The figure for BmK-M9 R41G is 1700 s; for BmK-M9 K8G it is 1700 s; for BmK-M9 D3G it is 1900 s. Substance BmK-M9 E20G displayed an other: τoff of 1600 s.

As for BmK-M9 E10G, the other: τoff turned out to be 1700 s.

In turn, BmK-M9 R54G gave an other: τoff of 1800 s. In the case of BmK-M9 K62G, the other: τoff is 8.5 s. The figure for BmK-M9 D53G is 1700 s; for BmK-M9 E32G it is 1800 s.

BmK-M9 D28G had an other: τoff of 1800 s. Take BmK-M9 R58G: the other: τoff was determined as 2000 s.
